To fix the notation:
B1: designer therapeutic epitope 2 SVFQHLPGGGSC (SEQ ID NO: 251) (peptide)
peptide: SVFQHLPGGGSC
notes: Designed peptide keeping HxPGGG
B2: designer therapeutic epitope 1 GWSIHSPGGGSC (SEQ ID NO: 250) (peptide)
peptide: GWSIHSPGGGSC
notes: as for B1
B3: tau peptide 295-DNIKHVPGGGS-305 (SEQ ID NO: 171) (peptide)
peptide: DNIKHVPGGGS
notes: check the listing
B4: monoclonal antibody DC8E8 (antibody, V domains shown)
VH: QVQLQQSGPELVKPGTSVKMPCKASGYIFTDYVISWVKQRTGQGLEWIGEIFPRSGSTYYNEKFKGKATLTADKSSNTAYMQLSSVTSEDSAVYFCARDYYGTSFAMDYWGQGTSVTVSS
VL: DIVMSQSPSSLAVSAGEKVTMSCKSSQSLLNSRTRKNYLAWYQQKPGQSPKLLIYWASTRESGVPDRFTGSGSGTDFTLTISSVQAEDLAVYYCKQSFYLRTFGGGTKLDIK
notes: also called mAb DC8E8; antibody of hybridoma ATCC PTA-11994
B5: recombinant scFv fragment of monoclonal antibody DC8E8 (scDC8E8v) (scFv, V domains shown)
VH: B4 VH
VL: B4 VL

Experiment [1] addresses B4. Kind of experiment: competition ELISA: peptide pre-incubated with DC8E8, binding to plate-coated tauΔ(1-150;392-441)4R measured.
Description: The coated ELISA plates were washed 4 times with PBS/Tween 20 (phosphate-buffered saline supplemented with 0.05% v/v Tween 20), and blocked with PBS/Tween 20 for 2 h at 25° C. Each of the peptides was separately dissolved in PBS at the final concentration of 5 mM. […] The antibody/peptide mixtures were incubated for 1 hr at 25° C. on a rotating platform set to 250 rpm. One hundred microliters of the antibody/peptide mixtures were then transferred into the prepared ELISA plates and incubated for 1 hr at 25° C. on a rotating platform set to 250 rpm. The ELISA plates were washed 4× times with PBS/Tween 20. The ELISA plates were then incubated with 100 μl of Polyclonal Goat Anti-Mouse Immunoglobulins/HRP (Dako, #P0447) diluted 1:4 000 in PBS/Tween 20 and incubated for 1 hr at 25° C. on a rotating platform set to 250 rpm. The ELISA plates were washed 4× times with PBS/Tween20. […] The developed signal was measured by reading at 490 nm (e.g. using the Victor Multilabel Counter (Wallac).
For experiment [2], the target named is B4. Kind of experiment: competition ELISA: peptide pre-incubated with DC8E8 (1 µg/ml), then on plates coated with the competitor tauΔ(1-150;392-441)/4R; peptide series 1.25-160 µM in paragraph 380, the concentration of the bars is not given.
Experiment [3] concerns the target T1, human tau isoform 2N4R (human, UniProt P10636 1-758).
T1 construct: also called tau 2N4R; tau441
Description: SPR (BIACORE3000, CM5), DC8E8 captured by anti-mouse antibody, tau protein injected, 25 °C, PBS-P, two-phase reaction model.
Description: (§1) A BIACORE3000 instrument with a CM5 sensor chip (Biacore AB, Uppsala) was used for the SPR assays. […] These experiments were done at 25° C. in PBS pH 7.4 with 0.005% of P20 (PBS-P) as the running buffer.
(§2) Kinetic rate constants were approximated globally, maximal responses were fitted locally, and the bulk response was set to zero.

The target in experiment [4] is T2, tauΔ(1-150;392-441)/4R (human, UniProt P10636 468-708).
T2 construct: Recombinant truncated human tau, numbered on 2N4R; also the transgene of SHR72 rats; also called misdisordered tau; pathological tau
T2 sequence (P10636 other isoform, or with tags, fused parts or gaps mutant limits assumed): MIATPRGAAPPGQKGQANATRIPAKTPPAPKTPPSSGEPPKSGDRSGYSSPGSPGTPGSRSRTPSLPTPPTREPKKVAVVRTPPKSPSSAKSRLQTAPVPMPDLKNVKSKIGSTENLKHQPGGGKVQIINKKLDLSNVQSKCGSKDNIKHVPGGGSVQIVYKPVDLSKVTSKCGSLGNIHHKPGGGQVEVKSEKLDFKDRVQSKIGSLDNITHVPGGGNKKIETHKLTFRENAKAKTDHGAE
The experiment is described as above.
Description: as §1, §2

The target in experiment [5] is T3, tauΔ(1-150;392-441)/3R (human, UniProt P10636 468-708).
T3 construct: Also the transgene of SHR24 rats; also called misdisordered three repeat tau; tau type IIB (151-391/R3)
T3 sequence (P10636 other isoform, or with tags, fused parts or gaps mutant): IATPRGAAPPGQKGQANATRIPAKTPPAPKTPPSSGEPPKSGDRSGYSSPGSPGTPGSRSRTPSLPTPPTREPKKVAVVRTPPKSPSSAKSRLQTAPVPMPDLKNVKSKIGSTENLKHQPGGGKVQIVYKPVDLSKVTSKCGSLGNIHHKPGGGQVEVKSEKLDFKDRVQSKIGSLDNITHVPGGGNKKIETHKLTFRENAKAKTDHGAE
The experiment is described as above.
Description: as §1, §2

Experiment [6] has as its target T4, human tau isoform 2N3R (human, UniProt P10636 2-758).
T4 construct: also called tau 2N3R; tau39
The description is as above.
Description: as §1, §2

The target in experiment [7] is T5, 264-293/3R.
T5 peptide: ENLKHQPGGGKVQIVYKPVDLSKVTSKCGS
Description: ELISA, synthetic peptide coated (5 µg/ml), DC8E8 hybridoma culture supernate, anti-mouse Ig-HRP, absorbance 492 nm.
Description: (§3) Microtiter plates were coated overnight at 37° C. with either recombinant tau proteins or with tau peptides (5 μg/ml in PBS, 50 μl/well). […] Bound monoclonal antibody was detected with sheep anti-mouse Ig HRP-conjugated (DAKO). The reaction was developed with orthophenylenediamine solution as a peroxidase substrate and stopped with 50 μl of 2 M H₂SO₄. Absorbance was measured at 492 nm using a Multiscan MCC/340 ELISA reader (Labsystems). Readouts with an absorbance value of at least twice the value of the negative controls (PBS) were considered positive.

Experiment [8] deals with T6, 291-320/4R.
T6 peptide: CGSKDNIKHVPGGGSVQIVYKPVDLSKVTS
The description is as above.
Description: as §3

Experiment [9] deals with T7, 264-293/4R.
T7 peptide: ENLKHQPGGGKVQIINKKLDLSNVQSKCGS
The experiment is described as above.
Description: as §3

The target in experiment [10] is T8, 314-342/R4.
T8 peptide: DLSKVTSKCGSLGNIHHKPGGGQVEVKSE
The experiment is described as above.
Description: as §3

Experiment [11] deals with T9, 282-311/4R.
T9 peptide: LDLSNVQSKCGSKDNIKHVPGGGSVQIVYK
The experiment is described as above.
Description: as §3

The target of experiment [12] is T10, 281-305/4R.
T10 peptide: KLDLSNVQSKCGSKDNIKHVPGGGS
Described as above.
Description: as §3

In experiment [13] the target is T11, 259-288/3R (not fully specified).
T11 peptide: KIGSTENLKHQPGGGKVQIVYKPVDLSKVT
The experiment is described as above.
Description: as §3

The target in experiment [14] is T12, 256-285/4R.
T12 peptide: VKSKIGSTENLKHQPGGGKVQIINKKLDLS
The description is as above.
Description: as §3

Experiment [15] addresses T13, 259-288/4R.
T13 peptide: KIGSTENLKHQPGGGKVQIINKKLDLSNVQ
The experiment is described as above.
Description: as §3

The target of experiment [16] is T14, 256-285/3R (not fully specified).
T14 peptide: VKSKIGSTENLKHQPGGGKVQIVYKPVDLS
The description is as above.
Description: as §3

In experiment [17] the target is 275-304/4R. Described as above.
Description: as §3
Experiment [18] has as its target T3, tauΔ(1-150;392-441)/3R. Description: SPR (BIACORE3000, CM5), DC8E8 captured by anti-mouse antibody, tau protein injected, 25 °C, PBS-P, two-phase reaction model. The source holds these as a separate data set.
Description: as §1, §2
Experiment [19] has as its target T4, human tau isoform 2N3R. The description is as above. The source holds these as a separate data set.
Description: as §1, §2
In experiment [20] the target is T1, human tau isoform 2N4R. Described as above. This is another data set of the same source.
Description: as §1, §2
Experiment [21] deals with T2, tauΔ(1-150;392-441)/4R. The experiment is described as above. This is another data set of the same source.
Description: as §1, §2
The target of experiment [22] is T1, human tau isoform 2N4R. Description: SPR (Biacore 3000, CM5), His-tagged scDC8E8v captured by anti-His antibody (60 RU), tau protein injected at 100 µl/min, 25 °C, 1:1 model.
Experiment [23] deals with T2, tauΔ(1-150;392-441)/4R. Described as above.

T4 sequence (P10636 other isoform, or with tags, fused parts or gaps limits assumed): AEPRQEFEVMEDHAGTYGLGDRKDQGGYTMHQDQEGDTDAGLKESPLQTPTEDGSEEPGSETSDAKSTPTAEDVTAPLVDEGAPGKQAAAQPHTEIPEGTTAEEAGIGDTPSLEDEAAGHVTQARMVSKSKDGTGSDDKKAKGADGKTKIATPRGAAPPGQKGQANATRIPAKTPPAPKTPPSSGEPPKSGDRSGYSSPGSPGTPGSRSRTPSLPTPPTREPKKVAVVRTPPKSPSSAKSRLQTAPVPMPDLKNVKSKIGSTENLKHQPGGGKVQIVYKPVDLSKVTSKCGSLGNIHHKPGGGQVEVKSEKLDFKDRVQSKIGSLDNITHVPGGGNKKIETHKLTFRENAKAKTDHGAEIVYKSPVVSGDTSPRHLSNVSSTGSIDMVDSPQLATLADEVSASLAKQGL
T1 sequence (P10636 other isoform, or with tags, fused parts or gaps limits assumed): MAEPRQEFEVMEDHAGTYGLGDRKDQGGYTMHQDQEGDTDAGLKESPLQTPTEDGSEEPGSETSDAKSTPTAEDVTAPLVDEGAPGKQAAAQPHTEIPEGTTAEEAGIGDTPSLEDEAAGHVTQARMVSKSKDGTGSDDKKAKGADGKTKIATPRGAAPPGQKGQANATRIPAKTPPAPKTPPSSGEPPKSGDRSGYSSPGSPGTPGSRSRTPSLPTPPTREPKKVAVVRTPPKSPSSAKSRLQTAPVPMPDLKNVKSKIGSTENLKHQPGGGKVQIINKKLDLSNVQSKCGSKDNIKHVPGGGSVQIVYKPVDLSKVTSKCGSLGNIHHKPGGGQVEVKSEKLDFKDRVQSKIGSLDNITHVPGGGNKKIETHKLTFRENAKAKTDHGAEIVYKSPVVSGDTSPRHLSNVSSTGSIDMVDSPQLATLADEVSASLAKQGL

In the case of B1, the “IC50 (read off the curve)” value in [1] was ~30 nM.

In the case of B2, the “IC50 (read off the curve)” value in experiment [1] is 2000 to 3000 nM.

With B3, in [2], the binding result was “binds”.

For B4, the Ka in experiment [3] worked out at 1.1e+07 M⁻¹; in [4], 7.3e+07 M⁻¹; in experiment [5] it was 1.1e+06 M⁻¹; in experiment [6] it was 290000 M⁻¹. Besides, the binding result in experiment [7], in [8], in experiment [9], in [10], in experiment [11] and in experiment [12] was “binds” each time. Moreover, the binding result in [13], in [14], in experiment [15], in experiment [16] and in experiment [17] was “binds” in each case. For the same molecule, the koff is 0.5 s⁻¹ in experiment [18], 0.5 s⁻¹ in experiment [19], 0.04 s⁻¹ in [20] and 0.04 s⁻¹ in [21]. The kon is 490000 M⁻¹ s⁻¹ in [18], 140000 M⁻¹ s⁻¹ in experiment [19], 460000 M⁻¹ s⁻¹ in experiment [20] and 2.6e+06 M⁻¹ s⁻¹ in experiment [21].

In experiment [22], B5 came in with a Ka of 270000 M⁻¹, a koff of 0.2 s⁻¹ and a kon of 57000 M⁻¹ s⁻¹. In experiment [23], this molecule registered a Ka of 8.1e+06 M⁻¹, a koff of 0.02 s⁻¹ and a kon of 180000 M⁻¹ s⁻¹.

For the origin of these results see patent US20180282401A1 (AXON NEUROSCIENCE, published 2018).
